± gives the half width of the 95% confidence interval.
Experiments:
[1] = folding stability dG unfold from chymotrypsin proteolysis; higher = more stable
Summary of the method: (§1)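 Digests were run with trypsin and chymotrypsin at 11 concentrations in threefold dilutions, plus a no-protease condition, on designed mini-proteins in a PA-tagged cDNA display construct. The mini-proteins were under 80 residues, had no cysteine, and were kept only when AlphaFold2 dimer inter-PAE was above 15. After sequencing, Bayesian fitting of the counts gave K50, from which unfolding free energy was derived against a sequence-predicted unfolded-state K50 and a shared folded-state K50, per protease or combined.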

[2] = folding stability dG unfold from trypsin proteolysis; higher = more stable
Summary of the method: as §1

[3] = folding stability dG unfold (combined trypsin and chymotrypsin); higher = more stable
Summary of the method: as §1

Sequence	folding stability dG unfold [1] [kcal/mol]	folding stability dG unfold [2] [kcal/mol]	folding stability dG unfold [3] [kcal/mol]
SAGGSMTAPVKVLIKVPPNIPLSDIVKKLSAIPGIGAKPISYDPETGYALVDIGATDPEALKEAIGSAGGSA [r2_305_TrMRF]	2 ± 0.029	1.67 ± 0.057	1.9 ± 0.057
SMSPEIVEKIRKFLEEKGYSFTVERIPETGKVIINIDVRGNGKTRRVNIVFDENDPEKGIDLIKEIIESGSA [r9_42_TrMRF]	4.5 ± 0.076	3.51 ± 0.1	4.22 ± 0.085
SAGGNDDNWRVIEFTFSPGNIKPEQIRSLLENAGADRITDVEVQRTPNSYTVTFYFPNGKPVEITIPSAGGS [r8_86_TrROS]	2.37 ± 0.1	1.65 ± 0.038	2.13 ± 0.13
SAGGSDKVVEIPIDIPNGYTVTIRMHPDDGTARVEVSPNMPPNRVLEKIKKIFDDNGYRILPIEIVSAGGSA [r2_497_TrROS]	0.796 ± 0.053	1.2 ± 0.03	1.01 ± 0.077
SASMIQKYFKSQGYKIEKIEEKTLPNGERVVSYKITSTVNVPPNEKGVSKPVKKTTELTLSTEEAIKLGSAG [r14_16_JUSTAS]	1.32 ± 0.21	0.304 ± 0.14	1.04 ± 0.15
SAGSMTLESEDPSSGLRVTVTVEREPFLLPDGTRVLRRTVTTTVTTPDGEVLESEDVEVVAVLPPDAPLSAG [r5_871_JUSTAS]	2.43 ± 0.04	2.4 ± 0.085	2.46 ± 0.077
SAGGSMTFEIVEVTYDEETDEVTVRVRLPNGEVVTLSAEEIEKAIKEGKTITFTLENGEKLEIEVLSAGGSA [r2_301_TrROS_Hall]	2.58 ± 0.03	1.49 ± 0.038	2.27 ± 0.084
SAGGSAGGSAGGSFGAVKARFKVEFVARAEDGSLYPVELEFEVEVPVLPPLPFLHPDLFSAGGSAGGSAGGS [r4_325_TrMRF]	2.35 ± 0.038	1.86 ± 0.051	2.18 ± 0.068
SAGGSAGGRIMIPVKNIKGQPAEEAKQWLKAILRELFPPGMKIDIDVQPDKDGEYWVTIDIKPPSAGGSAGG [r6_964_TrROS]	2.48 ± 0.099	1.64 ± 0.23	2 ± 0.44
SSPGKITTYEVTLTLPGPRPMTSTVDPSGVMTATVPDGTKITATIVPGPGTLTITTTFPDGTTSTSTISASA [r9_99_JUSTAS]	1.21 ± 0.058	1.26 ± 0.061	1.26 ± 0.074
EVETYPDGTVVTTLPPEVTADIPADEPVNLRTLIFDPDGYLYLSTATRTPDGTVTYTVSITPIPVGPELLLS [r1_394_JUSTAS]	1.63 ± 0.083	1.44 ± 0.029	1.54 ± 0.077
SAGGPNIRIDINLMPHPGKPYIMVRIEIPNGYKREIMFNPDDGKISIEIRYPGKEEKIEFPLDDIKPISAGG [r13_328_TrROS]	4.7 ± 0.3	3.48 ± 0.5	4.42 ± 0.32
SAGGSAGGSAGMVKSLSELLAENPDLSIEEIKAKLEKEGYKVEVKKEGDTPVVYIKKGKKSAGGSAGGSAGG [r11_707_JUSTAS]	0.765 ± 0.14	1.43 ± 0.04	1.12 ± 0.16
SAGGFEITEEREAVKTSPPEGPLRVEERLVIEVKSEDPEKALEEAQKETGLPVEVEVDPETGSVTITVRSAG [r5_907_JUSTAS]	0.766 ± 0.11	-0.523 ± 0.56	0.448 ± 0.18
SAGGMTEVSEVERSVIPDEGIPVTLERVETTVTVPPTTYKDEKGEVLPPGAVVHTESTVTIEERPELSAGGS [r8_262_JUSTAS]	0.095 ± 0.1	0.22 ± 0.036	0.257 ± 0.14
SAGGSAGGSAGGLPPGDKLKPVASWPIWAMFPVTYKGPDGELPFNIMIPIRIEIWKPDDSAGGSAGGSAGGS [r10_758_TrROS]	2.674 ± 0.022	2.23 ± 0.087	2.49 ± 0.1
SAGPPIWIRAEIEHPRPNPDDGEPQERKREVWIRLPEDLLENGMPVEELAKELASNYPGYKVKIDEILSAGG [r19_110_TrROS]	-0.915 ± 0.38	0.552 ± 0.026	0.159 ± 0.15

— the supplement of paper PMC12764529
